Data from article PMC11514446, “Transcription start site scanning requires the fungi-specific hydrophobic loop of Tfb3” (Nucleic Acids Research, 2024).

T1: Rad3 (subunit of core TFIIH / TFIIH-ΔTFIIK) (S. cerevisiae, UniProt P06839 1-778)
T1 construct: Rad3, S. cerevisiae, subunit of the seven-subunit core TFIIH; contains the ARCH domain; Stood in the assay as a subunit of core TFIIH inside the reconstituted PIC-ΔTFIIK; also called XPD of metazoan TFIIH (homolog)
T1 sequence (looked up): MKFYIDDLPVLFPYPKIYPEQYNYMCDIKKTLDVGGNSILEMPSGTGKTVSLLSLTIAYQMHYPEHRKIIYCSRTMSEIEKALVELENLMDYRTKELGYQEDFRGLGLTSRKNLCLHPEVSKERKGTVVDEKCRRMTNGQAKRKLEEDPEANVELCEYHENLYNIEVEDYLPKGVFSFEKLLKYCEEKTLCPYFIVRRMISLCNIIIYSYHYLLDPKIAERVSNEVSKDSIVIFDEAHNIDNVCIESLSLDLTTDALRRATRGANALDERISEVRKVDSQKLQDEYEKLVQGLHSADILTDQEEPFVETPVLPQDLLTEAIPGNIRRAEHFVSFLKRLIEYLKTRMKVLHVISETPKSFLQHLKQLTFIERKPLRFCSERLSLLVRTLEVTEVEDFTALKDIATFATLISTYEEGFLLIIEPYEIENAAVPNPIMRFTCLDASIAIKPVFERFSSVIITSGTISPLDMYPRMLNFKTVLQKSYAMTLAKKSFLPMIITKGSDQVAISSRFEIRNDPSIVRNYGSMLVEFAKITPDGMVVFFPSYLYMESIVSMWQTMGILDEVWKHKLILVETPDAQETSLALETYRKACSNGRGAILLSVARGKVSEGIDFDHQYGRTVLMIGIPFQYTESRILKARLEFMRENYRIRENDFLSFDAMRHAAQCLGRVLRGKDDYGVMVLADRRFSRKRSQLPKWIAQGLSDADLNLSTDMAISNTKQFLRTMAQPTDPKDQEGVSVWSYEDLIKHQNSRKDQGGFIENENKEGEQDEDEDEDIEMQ

B1: Tfa1 (subunit of TFIIE) (natural protein, S. cerevisiae, UniProt P36100 1-482, looked up)
chain: MDRPIDDIVKNLLKFVVRGFYGGSFVLVLDAILFHSVLAEDDLKQLLSINKTELGPLIARLRSDRLISIHKQREYPPNSKSVERVYYYVKYPHAIDAIKWKVHQVVQRLKDDLDKNSEPNGYMCPICLTKYTQLEAVQLLNFDRTEFLCSLCDEPLVEDDSGKKNKEKQDKLNRLMDQIQPIIDSLKKIDDSRIEENTFEIALARLIPPQNQSHAAYTYNPKKGSTMFRPGDSAPLPNLMGTALGNDSSRRAGANSQATLHINITTASDEVAQRELQERQAEEKRKQNAVPEWHKQSTIGKTALGRLDNEEEFDPVVTASAMDSINPDNEPAQETSYQNNRTLTEQEMEERENEKTLNDYYAALAKKQAKLNKEEEEEEEEEEDEEEEEEEEMEDVMDDNDETARENALEDEFEDVTDTAGTAKTESNTSNDVKQESINDKTEDAVNATATASGPSANAKPNDGDDDDDDDDDEMDIEFEDV
notes: Tfa1, S. cerevisiae, subunit of TFIIE; Stood in the assay as a subunit of TFIIE inside the reconstituted PIC-ΔTFIIK
B2: Rpb4 (subunit of RNA polymerase II) (natural protein, S. cerevisiae, UniProt P20433 1-221, looked up)
chain: MNVSTSTFQTRRRRLKKVEEEENAATLQLGQEFQLKQINHQGEEEELIALNLSEARLVIKEALVERRRAFKRSQKKHKKKHLKHENANDETTAVEDEDDDLDEDDVNADDDDFMHSETREKELESIDVLLEQTTGGNNKDLKNTMQYLTNFSRFRDQETVGAVIQLLKSTGLHPFEVAQLGSLACDTADEAKTLIPSLNNKISDDELERILKELSNLETLY
notes: Rpb4, S. cerevisiae, subunit of RNA polymerase II; Stood in the assay as a subunit of pol II inside the reconstituted PIC-ΔTFIIK
B3: Tfa2 (subunit of TFIIE) (natural protein, S. cerevisiae, UniProt P36145 1-328, looked up)
chain: MSKNRDPLLANLNAFKSKVKSAPVIAPAKVGQKKTNDTVITIDGNTRKRTASERAQENTLNSAKNPVLVDIKKEAGSNSSNAISLDDDDDDEDFGSSPSKKVRPGSIAAAALQANQTDISKSHDSSKLLWATEYIQKKGKPVLVNELLDYLSMKKDDKVIELLKKLDRIEFDPKKGTFKYLSTYDVHSPSELLKLLRSQVTFKGISCKDLKDGWPQCDETINQLEEDSKILVLRTKKDKTPRYVWYNSGGNLKCIDEEFVKMWENVQLPQFAELPRKLQDLGLKPASVDPATIKRQTKRVEVKKKRQRKGKITNTHMTGILKDYSHRV
notes: Tfa2, S. cerevisiae, subunit of TFIIE; contains the WH domain; Stood in the assay as a subunit of TFIIE inside the reconstituted PIC-ΔTFIIK

These binders were tested against T1, Rad3 (subunit of core TFIIH / …) (assay: cryo-EM structure; PIC-ΔTFIIK reconstituted from purified factors (TFIIA, TFIIB, TBP, TFIIE, TFIIF, TFIIH-ΔTFIIK, pol II, TFIIS) on a HIS4 promoter DNA fragment, nucleotide-free; glycerol gradient with 0-0.125% glutaraldehyde fixation; two forms from 3D classification (form 1 at 3.7 Å, form 2 at 3.8 Å)). Conditions: both partners purified.

Row | binding result | Binder
1 | binds | B1
2 | binds | B2
3 | binds | B3
